Experimental data as given in US20240043504A1 (published 2024).

T1: MERS-CoV (NCoV/Novel coronavirus) Spike Protein fragment (RBD, aa 367-606, His Tag) (Sino 40071-V08B1) (MERS-CoV, UniProt K9N5Q8 367-606)
T1 sequence: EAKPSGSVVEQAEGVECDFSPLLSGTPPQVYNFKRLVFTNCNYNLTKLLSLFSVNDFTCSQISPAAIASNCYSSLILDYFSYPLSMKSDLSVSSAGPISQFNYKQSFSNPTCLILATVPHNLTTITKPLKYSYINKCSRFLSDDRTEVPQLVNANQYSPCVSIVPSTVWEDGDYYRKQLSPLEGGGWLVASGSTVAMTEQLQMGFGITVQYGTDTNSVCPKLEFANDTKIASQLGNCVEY

T2: MERS-CoV (NCoV/Novel coronavirus) Spike Protein (ECD, aa 1-1297, His Tag) (Sino 40069-[change]) (MERS-CoV, UniProt K9N5Q8 18-1297)
T2 sequence: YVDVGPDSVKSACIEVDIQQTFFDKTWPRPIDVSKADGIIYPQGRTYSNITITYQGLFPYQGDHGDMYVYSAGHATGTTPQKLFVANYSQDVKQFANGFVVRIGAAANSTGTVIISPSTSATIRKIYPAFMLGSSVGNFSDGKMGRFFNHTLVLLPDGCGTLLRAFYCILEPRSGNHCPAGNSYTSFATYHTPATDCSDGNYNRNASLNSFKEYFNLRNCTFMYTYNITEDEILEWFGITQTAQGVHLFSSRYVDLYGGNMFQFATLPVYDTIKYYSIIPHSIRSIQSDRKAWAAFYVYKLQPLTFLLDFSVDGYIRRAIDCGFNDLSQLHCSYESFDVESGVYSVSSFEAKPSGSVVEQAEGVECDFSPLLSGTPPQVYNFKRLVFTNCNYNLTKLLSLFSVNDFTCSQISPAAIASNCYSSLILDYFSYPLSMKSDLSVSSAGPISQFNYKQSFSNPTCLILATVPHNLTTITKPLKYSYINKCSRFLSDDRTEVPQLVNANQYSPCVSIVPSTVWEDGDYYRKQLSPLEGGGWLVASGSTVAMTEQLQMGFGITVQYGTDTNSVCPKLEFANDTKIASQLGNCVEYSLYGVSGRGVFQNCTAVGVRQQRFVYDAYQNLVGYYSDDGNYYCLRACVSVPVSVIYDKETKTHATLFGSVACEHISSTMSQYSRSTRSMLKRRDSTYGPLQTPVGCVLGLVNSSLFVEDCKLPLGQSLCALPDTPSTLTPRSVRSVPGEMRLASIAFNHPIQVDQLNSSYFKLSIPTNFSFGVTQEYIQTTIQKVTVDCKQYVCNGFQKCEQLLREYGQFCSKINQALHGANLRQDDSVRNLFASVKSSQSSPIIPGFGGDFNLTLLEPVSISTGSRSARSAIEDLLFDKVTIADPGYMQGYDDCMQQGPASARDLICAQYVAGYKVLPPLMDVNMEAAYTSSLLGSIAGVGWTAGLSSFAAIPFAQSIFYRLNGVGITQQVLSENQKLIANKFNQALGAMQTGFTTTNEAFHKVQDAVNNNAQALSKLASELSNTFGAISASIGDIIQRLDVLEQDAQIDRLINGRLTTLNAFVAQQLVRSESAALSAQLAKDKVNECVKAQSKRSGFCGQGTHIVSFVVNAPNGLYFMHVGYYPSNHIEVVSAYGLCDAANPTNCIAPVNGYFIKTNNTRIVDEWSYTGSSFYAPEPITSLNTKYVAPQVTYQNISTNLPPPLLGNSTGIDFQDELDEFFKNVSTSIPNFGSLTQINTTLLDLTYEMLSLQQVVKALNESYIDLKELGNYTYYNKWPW

T3: MERS-CoV (NCoV/Novel coronavirus) Spike Protein S2 (aa 726-1296, His Tag) (Sino 40070-[change]) (MERS-CoV, UniProt K9N5Q8 726-1296)
T3 sequence: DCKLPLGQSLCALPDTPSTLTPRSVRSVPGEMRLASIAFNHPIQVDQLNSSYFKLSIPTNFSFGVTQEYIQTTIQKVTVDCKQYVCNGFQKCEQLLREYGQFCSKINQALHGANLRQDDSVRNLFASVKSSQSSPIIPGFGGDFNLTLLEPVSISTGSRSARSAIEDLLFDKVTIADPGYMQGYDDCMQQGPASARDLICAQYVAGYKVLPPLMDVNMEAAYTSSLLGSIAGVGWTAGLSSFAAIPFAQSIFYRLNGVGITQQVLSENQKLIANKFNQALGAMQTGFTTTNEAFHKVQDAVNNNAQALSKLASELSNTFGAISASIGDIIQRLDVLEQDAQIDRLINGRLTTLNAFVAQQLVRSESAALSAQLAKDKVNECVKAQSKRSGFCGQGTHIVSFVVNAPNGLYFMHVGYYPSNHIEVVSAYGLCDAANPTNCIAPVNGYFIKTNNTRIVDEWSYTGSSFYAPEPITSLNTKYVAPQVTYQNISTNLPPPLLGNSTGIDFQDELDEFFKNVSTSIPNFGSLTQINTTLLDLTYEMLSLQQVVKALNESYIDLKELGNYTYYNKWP

B1: mAb11008 (antibody, V domains shown)
VH: EVQLVESGGGLVQPGGSLRLSCAASGFTVSSNYMTWVRQAPGKGLEWVSVIYSGGSTFYADSVKGRFTISRHNSENTLYLQMNSLRAEDTAVYYCARDLAAAGTDYWGQGALVTVSS
VL: DIQLTQSPSFLSASVGDRVTITCWASQGISSYLAWYQQKPGKAPKLLIYAASTLQSGVPSRFSGSGSGTEFTLTISSLQPDDFATYYCQHLNSYLYTFGQGTKLEIK
B2: mAb11004 (antibody, V domains shown)
VH: QVQLVESGGGVVQPGRSLRLSCVASGFTFSIYGMDWVRQAPGKGLEWVAVISYDGSNKYYADSVKGRFTISRDNSKNTLYLQMNSLRPEDTAVYYCAKDREAAADAFDIWGQGTMVTVSS
VL: DIQMTQSPSSVSASVGDRVTITCRASQGISSWLAWYQQKPGKAPKLLIYAASSLHSGVPSRFSGSGSGTDFTLTISSLQPEDFATYYCQQANSFRLTFGGGTKVEIK

Experiments:
Assay in all cases: Luminex bead binding, supernatant
[1] = biological target: Bt-SARS-CoV-2 Spike Protein (RBD)(R319-F541).mFc (mAb10621-L2) (SARS-CoV-2)
[2] = biological target: SARS-CoV-2 Spike Protein (RBD)(R319-F541).mFc (mAb10621-L1) (SARS-CoV-2)
[3] = biological target: Human SARS Coronavirus Spike S1 Subunit Protein (His Tag) (Sino 40150-V08B1) (Human SARS Coronavirus, UniProt P59594 14-667)
[4] = biological target: T1, MERS-CoV (NCoV/Novel coronavirus) Spike …
[5] = biological target: T2, MERS-CoV (NCoV/Novel coronavirus) Spike …
[6] = biological target: T3, MERS-CoV (NCoV/Novel coronavirus) Spike …
[7] = biological target: SARS-CoV-2 Spike Protein (RBD)(R319-F541).hFc (mAb10622-L1) (SARS-CoV-2)

| Binder | Binding signal (MFI) [1] | Binding signal (MFI) [2] | Binding signal (MFI) [3] | Binding signal (MFI) [4] | Binding signal (MFI) [5] | Binding signal (MFI) [6] | Binding signal (MFI) [7] |
| --- | --- | --- | --- | --- | --- | --- | --- |
| B1 | 3050 MFI | 4260 MFI | 31 MFI | 20 MFI | 18 MFI | 16 MFI | 2570 MFI |
| B2 | 4300 MFI | 4580 MFI | 33 MFI | 26 MFI | 15 MFI | 20 MFI | 4880 MFI |
